Assay results reported in patent US20220106405A1 (YEDA RESEARCH AND DEVELOPMENT, published 2022).

Assays:
MMP-7 zymogen / pro form = biological target: T1, MMP-7 zymogen / pro form (UniProt P09237 18-267, limits assumed); assay: dot blot
T1 construct: domain: zymogen/pro form; Recombinant zymogen on the dot blot and in ELISA; also called MMP-7 pro form; zymogen form of the enzyme
T1 sequence (looked up): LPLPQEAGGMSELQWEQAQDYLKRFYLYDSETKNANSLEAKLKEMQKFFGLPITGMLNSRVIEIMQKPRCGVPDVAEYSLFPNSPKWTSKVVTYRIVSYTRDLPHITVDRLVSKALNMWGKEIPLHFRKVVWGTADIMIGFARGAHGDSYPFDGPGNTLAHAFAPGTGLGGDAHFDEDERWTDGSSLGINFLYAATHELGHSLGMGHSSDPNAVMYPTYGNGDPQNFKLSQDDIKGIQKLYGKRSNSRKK
Method: A dot blot was performed by immobilizing 1, 1.5 and 2 μg zymogen and activated MMP-7 recombinant enzyme on nitrocellulose membrane pre wetted with TBST using a vacuum based manifold 96 well dot-blot system (GE 10447900 Minifold dot blot). The blocking was performed for 1 hour at room temperature with 3% BSA in TBST. The membrane was then probed for binding by antibody eluted in the earlier step by incubating overnight. The anti MMP-7 mAb used was at 2 ug/ml concentration in TBST. The membrane after 3 washes in TBST was incubated with goat anti mouse HRP antibody and developed using ECL to determine the selectivity of binding towards catalytic form only.
Only antibodies that were capable of binding to the activated form of MMP-7 and not the zymogen were selected for further development (i.e. selected for fusion and developed to generate monoclonal antibodies). This was carried out by dot blot analysis using a nitrocellulose membrane coated with varying concentrations of active MMP-7 and its zymogen respectively.

MMP-9 = MMP-9 (UniProt P14780 107-707, limits assumed); assay: ELISA, MMP-coated plate
MMP-9, sequence (P14780 107-707 limits assumed): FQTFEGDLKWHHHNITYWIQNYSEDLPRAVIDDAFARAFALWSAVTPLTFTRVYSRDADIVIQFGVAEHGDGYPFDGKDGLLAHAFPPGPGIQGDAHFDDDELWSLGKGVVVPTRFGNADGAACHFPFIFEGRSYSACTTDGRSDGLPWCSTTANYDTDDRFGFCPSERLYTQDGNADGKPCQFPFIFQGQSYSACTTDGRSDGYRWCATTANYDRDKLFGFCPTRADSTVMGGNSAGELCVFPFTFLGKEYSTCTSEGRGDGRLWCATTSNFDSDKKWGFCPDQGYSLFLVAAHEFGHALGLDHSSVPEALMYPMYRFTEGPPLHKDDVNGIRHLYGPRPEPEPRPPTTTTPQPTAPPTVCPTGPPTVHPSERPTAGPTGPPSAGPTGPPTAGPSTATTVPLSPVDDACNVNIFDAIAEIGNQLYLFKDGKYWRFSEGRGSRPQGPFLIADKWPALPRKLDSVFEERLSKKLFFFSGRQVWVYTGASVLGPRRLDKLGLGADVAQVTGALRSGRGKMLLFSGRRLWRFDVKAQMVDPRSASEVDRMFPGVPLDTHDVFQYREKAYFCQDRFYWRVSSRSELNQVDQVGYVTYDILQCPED
Method: (§1) MMP-7 Elisa binding assay: A 96-well plate (Nunc) was coated with MMP at 5 mg/ml. […] The bound Fab fragment/full length was detected using a goat anti-Fab/anti-mouse antibody followed by peroxidase-conjugated bovine anti-goat antibody according to standard procedures. A four-parametric sigmoidal curve-fitting analysis was used to calculate the half-maximal effective concentration.
(§2) The lack of binding to a panel of other MMPs helped measure the novel antibody's affinity to epitopes specifically unique to MMP-7.

MMP-14 = MMP-14 (UniProt P50281 112-538, limits assumed); assay: ELISA, MMP-coated plate
Method: as §1, §2

MMP-12 = MMP-12 (UniProt P39900 106-263, limits assumed); assay: ELISA, MMP-coated plate
MMP-12, sequence (P39900 106-263 limits assumed): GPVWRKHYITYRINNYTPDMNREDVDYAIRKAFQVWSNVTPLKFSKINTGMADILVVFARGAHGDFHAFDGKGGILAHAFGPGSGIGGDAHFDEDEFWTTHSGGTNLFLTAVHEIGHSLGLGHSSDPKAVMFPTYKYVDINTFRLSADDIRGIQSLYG
Method: as §1, §2

MMP-13 = MMP-13 (UniProt P45452 104-471, limits assumed); assay: ELISA, MMP-coated plate
Method: as §1, §2

[1] = biological target: T2, recombinant human MMP-7 activated form (catalytic domain) (human, UniProt P09237 95-267); assay: ELISA on MMP-coated plate, four-parametric sigmoidal fit
T2 construct: domain: catalytic domain; Contains the catalytic zinc; also called MMP-7 active enzyme
T2 sequence (looked up): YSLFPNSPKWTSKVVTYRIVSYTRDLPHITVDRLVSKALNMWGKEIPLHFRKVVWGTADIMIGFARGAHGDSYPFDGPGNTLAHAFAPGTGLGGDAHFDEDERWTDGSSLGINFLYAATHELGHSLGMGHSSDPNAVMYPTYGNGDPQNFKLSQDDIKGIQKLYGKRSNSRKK
Method: as §1, §2

[2] = biological target: T2, recombinant human MMP-7 activated form …; assay: enzyme inhibition, fluorogenic peptide Mca-Pro-Leu-Gly-Leu-Dpa-Ala-Arg-NH2, 10 nM MMP-7, 37 C
Method: The enzymatic reaction was initiated by addition of the fluorogenic peptide to a final concentration of 10 μM. Fluorescence was recorded immediately and continuously for 30 min.
Remarkably, considering that the immunization booster also included the common zinc motif, the antibody is fully selective for MMP-7. […] Simultaneously the effect of the antibody on catalytic activity of related MMPs was measured. The catalytic activities in vitro of MMP-9, -14 and -12 were either not affected or in the case of MMP-14 only negligibly affected by the anti MMP-7 Fab treatment (FIG. 2D).

B1: GSM-192 monoclonal antibody (antibody, V domains shown)
VH: EVQLQQSGPELVKPGASVKIPCKASGYTFTDYNMDWMKQSHGKSLEWIGHINPNNGGTFYNQKFKDKATFIVDKSSNTAYMELRSLTSEDTAVYFCARGGGLRRGPFAYWGQGTLVTVS
VL: DIVTQSPASLAVSLGQRATISCRASESFDSYGNTFVHWYQQKPGQPPKLLIYLVSNLESGVPAGFRGRGSRTDFTLTIDPVEADDAATYYCQQNNEDPYTFGGGTKLEIKR
notes: also called anti MMP-7 mAb; anti MMP-7 Ab
B1: no binding (MMP-7 zymogen / pro form); no binding (MMP-9); no binding (MMP-14). The binding result (MMP-12) was “no binding”, the binding result (MMP-13) was “no binding” and the Kd [1] was 43.1 nM.

B2: GSM-192 Fab fragment (Fab, V domains shown)
VH: B1 VH
VL: B1 VL
notes: also called anti MMP-7 Fab
B2 was tested, and the Ki [2] was 132 nM.
